Laboratory results from US20250026856A1 (UCB, published 2025).

Tests used:
[1] = target: T1, human transglutaminase type 2 (TG2) (human, UniProt P21980 2-687); assay: cell-based or functional assay
T1 sequence: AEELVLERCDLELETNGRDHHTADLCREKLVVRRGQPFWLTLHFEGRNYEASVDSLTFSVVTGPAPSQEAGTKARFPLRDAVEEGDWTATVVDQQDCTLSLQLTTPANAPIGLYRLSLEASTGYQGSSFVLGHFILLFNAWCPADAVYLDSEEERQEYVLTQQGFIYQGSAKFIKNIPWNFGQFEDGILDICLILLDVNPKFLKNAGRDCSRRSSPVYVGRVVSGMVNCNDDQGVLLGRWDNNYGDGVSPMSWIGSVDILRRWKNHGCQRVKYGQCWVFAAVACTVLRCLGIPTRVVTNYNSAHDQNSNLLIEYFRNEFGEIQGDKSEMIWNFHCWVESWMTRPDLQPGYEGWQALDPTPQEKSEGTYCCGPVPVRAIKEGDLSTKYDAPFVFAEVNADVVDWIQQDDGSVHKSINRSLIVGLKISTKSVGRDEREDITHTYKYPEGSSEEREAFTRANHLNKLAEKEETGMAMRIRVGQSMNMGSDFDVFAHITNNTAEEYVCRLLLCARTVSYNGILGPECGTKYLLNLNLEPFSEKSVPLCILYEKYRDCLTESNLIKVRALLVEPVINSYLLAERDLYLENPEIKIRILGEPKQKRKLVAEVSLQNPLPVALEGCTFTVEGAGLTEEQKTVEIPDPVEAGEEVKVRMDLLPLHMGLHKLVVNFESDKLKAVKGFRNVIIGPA

rabbit TG2 = rabbit TG2 (rabbit); assay: cell-based or functional assay

B1: Zampilimab (antibody, V domains shown)
VH: EVQLLESGGGLVQPGGSLRLSCAASGFTLSTHAMSWVRQAPGKGLEWVATISSGGRSTYYPDSVKGRFTISRDNSKNTLYLQMNSLRAEDTAVYFCARLISTYWGQGTLVTVSS
VL: DITMTQSPSSLSASVGDRVTITCKASQDINSYLTWFQQKPGKAPKILIYLVNRLVDGVPSRFSGSGSGQDYALTISSLQPEDFATYYCLQYDDFPYTFGQGTKVEIK
IC50 against human TG2 [1]: 0.25 nM | IC50 against rabbit TG2 (rabbit TG2): 103 nM

B2: rbBB7 (antibody, V domains shown)
VH: EVQLLESGGRLVTPGGSLTLTCAASGIIFSSSAMSWVRQAPGKGLEWVATISSGGRSTYYPDSVKGRFTVSRDSSKNTLYLQMNSLRAEDTAVYYCAKLISPYWGQGTLVTVSS
VL: AIKMTQTPSSVSAAVGGTVTISCKASQDINSYLTWFQQKPGQPPKTLIYLTNRLMDGVPSRFSGSGSGQEFLLTISGLECDDAATYYCLQYVDFPYTFGGGTKVVVK
IC50 against human TG2 [1]: 0.3 nM | IC50 against rabbit TG2 (rabbit TG2): 8 nM
